For the experiment, the target named is HR2 (heptad repeat 2) polypeptide of SARS-CoV-2 spike protein (SARS-CoV-2) (UniProt P0DTC2). Briefly: AUC; sedimentation velocity, 50,000 rpm, 20 C, 50 mM NaCl, 25 mM sodium phosphate pH 6.0, no detergent; monomer to tetramer.

As usually defined, the stoichiometry N is a count of units in the complex or per binding partner. Consider “HR2 (heptad repeat 2) polypeptide of SARS-CoV-2 spike protein (from UniProt P0DTC2 1171-1207) (domain or fragment)”, for which the monomer population at 250 uM stood at 10% and the stoichiometry N was determined as 4.

(Values after PMC8500521.)
